Experimental data taken from paper PMC11524583, “Neurons enhance blood–brain barrier function via upregulating claudin-5 and VE-cadherin expression due to glial cell line-derived neurotrophic factor secretion” (eLife, 2024).
Where “and” joins values, the source holds several entries; their conditions need not be identical. Equal values may be shown once.

How the values were obtained:
ETS1 = experiment: Western blot of total and nuclear ETS1 in hCMEC/D3 cells; assay type: cell-based, Homo sapiens; conditions: for ETS1/β-actin Relative Expression, Mean / ETS1/Lamin B Relative Expression, Mean: group mean; for ETS1/β-actin Relative Expression / ETS1/Lamin B Relative Expression: individual replicates
Protocol: (§1) Whole-cell and tissue lysates, nucleoprotein, and cytoplasmic protein were prepared using RIPA Lysis Buffer (Beyotime, Shanghai, China) as the described method ([Wu et al., 2021]). Proteins were separated through sodium dodecyl sulfate–polyacrylamide gel electrophoresis and transferred onto nitrocellulose or polyvinylidene difluoride membranes. The membranes were blocked with 5% skim milk and incubated with corresponding primary antibodies at 4°C overnight. After being washed with Tris-buffered saline Tween buffer, the membranes were incubated with secondary antibodies (Cell Signaling Technology, MA, USA) at 1:3000 dilution: Anti-mouse IgG, HRP-linked Antibody (#7076), Anti-rabbit IgG, HRP-linked Antibody (#7074). Protein levels were visualized using a highly sensitive ECL western blotting substrate and a gel imaging system (Tanon Science & Technology, Shanghai, China).
Here, hCMEC/D3 cells were plated in the plates or culture dishes at 6 × 10^4 cells/cm^2 and transfected with 10 nM of negative control or human FOXO1, ETS1, and CDH5 siRNA (Tsingke Biotechnology, Beijing, China) for 12 hr using Lipofectamine 3000 (Invitrogen, Carlsbad, CA, USA) reagent according to the manufacturer’s instructions. Cells were then incubated with a medium containing GDNF for 72 hr.

claudin-5 [1] = experiment: Western blot of claudin-5 in primary rat brain microvascular endothelial cells; assay type: cell-based; conditions: primary rat BMECs, 200 pg/ml GDNF or US-CM
Protocol: (§2) Then, hCMEC/D3, U251, and SH-SY5Y cells were cultured in DMEM/F12 containing 10% FBS, 62.5 µg/ml penicillin and 100 µg/ml streptomycin. Cell viability was assessed using a CCK-8 kit (Beyotime Biotechnology, Shanghai, China), and the results were expressed as the fold of control.
as §1

p-p38/p38 = experiment: Western blot of p-p38/p38 in hCMEC/D3 cells; assay type: cell-based, Homo sapiens
Protocol: as §1

p-AKT/AKT = experiment: Western blot of p-AKT/AKT in hCMEC/D3 cells; assay type: cell-based, Homo sapiens
Protocol: as §1
(§3) Exogenous and endogenous GDNF in the medium was neutralized with anti-GDNF antibody (#AF-212-NA, R&D system, Minneapolis, MN, USA). 0.25, 0.5, and 1.0 μg/ml anti-GDNF antibody was added into the US-CM or medium containing 200 pg/ml GDNF, and then the medium was preincubated at 4°C for 1 hr. The hCMEC/D3 cells were incubated with 200 pg/ml GDNF or US-CM containing anti-GDNF antibody or not for 6 days, and then cell lysate was collected for western blot. The medium was replaced every 24 hr.

[2] = tested on: hCMEC/D3 mono-culture BBB model; experiment: TEER of hCMEC/D3 mono-culture BBB model; assay type: cell-based, Homo sapiens; conditions: for TEER: individual replicates
VE-cadherin = experiment: Western blot of VE-cadherin in primary rat brain microvascular endothelial cells; assay type: cell-based; conditions: primary rat BMECs, 200 pg/ml GDNF or US-CM
Protocol: as §2, §1

claudin-5 [3] = experiment: Western blot of claudin-5 expression in hCMEC/D3 cells; assay type: cell-based, Homo sapiens
How it was run: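 hCMEC/D3 cells were cultured in U251/SH-SY5Y co-culture conditioned medium or 200 pg/ml GDNF, with or without 0.25–1.0 μg/ml anti-GDNF antibody, for 6 days; alternatively, after 10 nM siRNA or FOXO1 plasmid transfection, cells received GDNF medium for 72 hr. RIPA lysates were analysed by SDS-PAGE immunoblot with ECL detection.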

p-JNK/JNK = experiment: Western blot of p-JNK/JNK in hCMEC/D3 cells; assay type: cell-based, Homo sapiens
Protocol: as §1

p-ERK/ERK = experiment: Western blot of p-ERK/ERK in hCMEC/D3 cells; assay type: cell-based, Homo sapiens
Protocol: as §1, §3

[4] = relative to Con, single replicate (Figure 2J)
[5] = relative to Con (mean 1.000), mean of 4, Figure 3D
[6] = relative to Con (mean 1.000), single replicates, Figure 3D
[7] = hCMEC/D3 cells, 200 pg/ml GDNF or US-CM
[8] = mean of 4, relative to Con, GDNF alone, Figure 3E
[9] = relative to Con (mean 1.000), mean of 4, Figure 3A
[10] = relative to Con (mean 1.000), single replicates, Figure 3A
[11] = single replicate, relative to Con, GDNF alone, Figure 3E
[12] = relative to Con (mean 1.000), mean of 4, Figure 3B
[13] = relative to Con (mean 1.000), mean of 4, Figure 3C
[14] = relative to Con (mean 1.000), single replicates, Figure 3B
[15] = relative to Con (mean 1.000), single replicates, Figure 3C

B1: GDNF: glial cell line-derived neurotrophic factor, recombinant protein (R&D system) (protein, UniProt P39905 78-211, looked up)
Glial cell line-derived …: SPDKQMAVLPRRERNRQAAAANPENSRGKGRRGQRGKNRGCVLTAIHLNVTDLGLGYETKEELIFRYCSGSCDAAETTYDKILKNLSRNRRLVSDKVGQACCRPIAFDDDLSFLDDNLVYHILRKHSAKRCGCI
With B1 the “ETS1/β-actin Relative Expression, Mean” value (ETS1; Figure 5A, Con = 1.000) was 1.877, the “ETS1/β-actin Relative Expression” value (ETS1; Figure 5A, relative to Con) was 1.777 and 1.712 and 2.125 and 1.893 and the “ETS1/Lamin B Relative Expression, Mean” value (ETS1; Figure 5B, Con = 1.000) was 1.560. For the same molecule, the “ETS1/Lamin B Relative Expression” value (ETS1; Figure 5B, relative to Con) was 1.659 and 1.595 and 1.316 and 1.670, the “ETS1/β-actin Relative Expression, Mean” value (ETS1; Figure 5C, Con = 1.000, GDNF group of LY and U0 inhibitor experiment) was 1.287 and the “ETS1/β-actin Relative Expression” value (ETS1; Figure 5C, relative to Con, GDNF group of LY and U0 inhibitor experiment) was 1.182 and 1.224 and 1.389 and 1.354. For the same molecule, the “ETS1/Lamin B Relative Expression, Mean” value (ETS1; Figure 5D, Con = 1.000) was 2.084, the “ETS1/Lamin B Relative Expression” value (ETS1; Figure 5D, relative to Con) was 1.875 and 2.209 and 2.073 and 2.180 and the “ETS1/β-actin Relative Expression, Mean” value (ETS1; Figure 5E, NC = 1.000) was 1.499. The “ETS1/β-actin Relative Expression” value (ETS1; Figure 5E, relative to NC) was 1.466 and 1.523 and 1.519 and 1.490, the “ETS1/Lamin B Relative Expression, Mean” value (ETS1; Figure 5F, NC = 1.000) was 1.528 and the “ETS1/Lamin B Relative Expression” value (ETS1; Figure 5F, relative to NC) was 1.629 and 1.498 and 1.595 and 1.392. For the same molecule, the “nuclear ETS1 expression” value (ETS1; hCMEC/D3 cells, US-CM or GDNF) was “significantly increased”, the “total ETS1 expression” value (ETS1; hCMEC/D3 cells, US-CM or GDNF) was “significantly increased” and the “Claudin-5/β-actin Relative Expression, Mean” value (claudin-5 [1]; Con = 1.000 (Figure 2J)) was 1.469. The “Claudin-5/β-actin Relative Expression” value (claudin-5 [1]; [4]) was 1.317 and 1.479 and 1.586 and 1.495, the “phosphorylation of p38” value (p-p38/p38; hCMEC/D3 cells, 200 pg/ml GDNF) was “did not stimulate” and the “p-p38/p38 Relative Expression Mean” value (p-p38/p38; [5]) was 0.924. The “p-p38/p38 Relative Expression” value (p-p38/p38; [6]) was 0.949 and 0.886 and 0.913 and 0.946, the “phosphorylation of AKT (p-AKT)” value (p-AKT/AKT; [7]) was “accompanied by the phosphorylation” and the “p-AKT/AKT Relative Expression, Mean” value (p-AKT/AKT; [8]) was 1.284. For the same molecule, the “p-AKT/AKT Relative Expression, Mean” value (p-AKT/AKT; [9]) was 1.345, the “p-AKT/AKT Relative Expression” value (p-AKT/AKT; [10]) was 1.311 and 1.24 and 1.38 and 1.4488 and the “p-AKT/AKT Relative Expression” value (p-AKT/AKT; [11]) was 1.359 and 1.208 and 1.388 and 1.180. The TEER ([2]; Figure 2M, Day3) was 61.71 Ω·cm2 and 62.7 Ω·cm2 and 62.37 Ω·cm2, the TEER ([2]; Figure 2M, Day4) was 64.35 Ω·cm2 and 63.69 Ω·cm2 and 66 Ω·cm2 and 65.34 Ω·cm2 and the TEER ([2]; Figure 2M, Day5) was 68.31 Ω·cm2 and 66.99 Ω·cm2 and 67.65 Ω·cm2 and 67.32 Ω·cm2. The TEER ([2]; Figure 2M, Day6) was 69.3 Ω·cm2 and 67.32 Ω·cm2 and 68.64 Ω·cm2 and 66.99 Ω·cm2, the TEER ([2]; Figure 2O, Day3) was 71.61 Ω·cm2 and 69.3 Ω·cm2 and 68.64 Ω·cm2 and 69.63 Ω·cm2 and the TEER ([2]; Figure 2O, Day4) was 74.25 Ω·cm2 and 76.23 Ω·cm2 and 72.27 Ω·cm2 and 74.91 Ω·cm2. The TEER ([2]; Figure 2O, Day5) was 77.22 Ω·cm2 and 72.93 Ω·cm2 and 74.58 Ω·cm2 and 77.55 Ω·cm2, the TEER ([2]; Figure 2O, Day6) was 76.23 Ω·cm2 and 73.92 Ω·cm2 and 76.56 Ω·cm2 and the TEER values ([2]; hCMEC/D3 mono-culture, 200 pg/ml GDNF, day 6) was “significantly increased”. The “VE-cadherin/β-actin Relative Expression, Mean” value (VE-cadherin; Con = 1.000 (Figure 2J)) was 1.773, the “VE-cadherin/β-actin Relative Expression” value (VE-cadherin; [4]) was 2.095 and 1.692 and 1.731 and 1.576 and the “Claudin-5/β-actin Relative Expression, Mean” value (claudin-5 [3]; 50pg, Figure 2D, Con = 1.000) was 1.434. The “Claudin-5/β-actin Relative Expression” value (claudin-5 [3]; 50pg, Figure 2D, relative to Con, single replicates) was 1.162 and 1.622 and 1.551 and 1.402, the “Claudin-5/β-actin Relative Expression, Mean” value (claudin-5 [3]; 100pg, Figure 2D, Con = 1.000) was 1.645 and the “Claudin-5/β-actin Relative Expression” value (claudin-5 [3]; 100pg, Figure 2D, relative to Con, single replicates) was 1.855 and 1.384 and 1.893 and 1.449. The “Claudin-5/β-actin Relative Expression, Mean” value (claudin-5 [3]; 200pg, Figure 2D, Con = 1.000) was 2.035, the “Claudin-5/β-actin Relative Expression” value (claudin-5 [3]; 200pg, Figure 2D, relative to Con, single replicates) was 2.027 and 2.014 and 1.765 and 2.333 and the “Claudin-5/β-actin Mean” value (claudin-5 [3]; Figure 2I, hCMEC/D3 cells, group mean, relative to Con) was 1.520. For the same molecule, the “Claudin-5/β-actin Relative Expression” value (claudin-5 [3]; Figure 2I, hCMEC/D3 cells, individual replicates, relative to Con) was 1.748 and 1.509 and 1.594 and 1.229, the “Claudin-5/β-actin Mean” value (claudin-5 [3]; Figure 2K, hCMEC/D3 cells, group mean, relative to Con) was 1.490 and the “Claudin-5/β-actin Relative Expression” value (claudin-5 [3]; Figure 2K, hCMEC/D3 cells, individual replicates, relative to Con) was 1.399 and 1.426 and 1.661 and 1.475. The “Claudin-5/β-actin Relative Expression, Mean” value (claudin-5 [3]; Figure 5G, hCMEC/D3 cells, group mean, NC = 1.000) was 1.393, the “Claudin-5/β-actin Relative Expression” value (claudin-5 [3]; Figure 5G, hCMEC/D3 cells, single replicates, relative to NC group) was 1.279 and 1.343 and 1.470 and 1.479 and the claudin-5 expression (claudin-5 [3]; hCMEC/D3 cells incubated with conditioned medium or neurotrophic factor vs normal medium) was “induced the expression of claudin-5 and VE-cadherin in a concentration-dependent manner”. The “Claudin-5/β-actin Relative Expression, Mean” value (claudin-5 [3]; [9]) was 1.789, the “Claudin-5/β-actin Relative Expression, Mean” value (claudin-5 [3]; [12]) was 1.788 and the “Claudin-5/β-actin Relative Expression, Mean” value (claudin-5 [3]; [13]) was 2.325. The “Claudin-5/β-actin Relative Expression, Mean” value (claudin-5 [3]; [5]) was 1.421, the “Claudin-5/β-actin Relative Expression” value (claudin-5 [3]; [10]) was 1.761 and 1.657 and 1.692 and 2.046 and the “Claudin-5/β-actin Relative Expression” value (claudin-5 [3]; [14]) was 1.594 and 2.146 and 1.495 and 1.917. The “Claudin-5/β-actin Relative Expression” value (claudin-5 [3]; [15]) was 2.223 and 2.345 and 2.874 and 1.857, the “Claudin-5/β-actin Relative Expression” value (claudin-5 [3]; [6]) was 1.649 and 1.456 and 1.174 and 1.405 and the “phosphorylation of JNK” value (p-JNK/JNK; hCMEC/D3 cells, 200 pg/ml GDNF) was “did not stimulate”. For the same molecule, the “p-JNK/JNK Relative Expression Mean” value (p-JNK/JNK; [13]) was 1.172, the “p-JNK/JNK Relative Expression” value (p-JNK/JNK; [15]) was 1.036 and 1.122 and 1.219 and 1.311 and the “phosphorylation of ERK (p-ERK)” value (p-ERK/ERK; [7]) was “accompanied by the phosphorylation”. For the same molecule, the “p-ERK/ERK Relative Expression, Mean” value (p-ERK/ERK; [8]) was 1.352, the “p-ERK/ERK Relative Expression, Mean” value (p-ERK/ERK; [12]) was 1.377 and the “p-ERK/ERK Relative Expression” value (p-ERK/ERK; [14]) was 1.512 and 1.333 and 1.310 and 1.351. The “p-ERK/ERK Relative Expression” value (p-ERK/ERK; [11]) was 1.315 and 1.511 and 1.307 and 1.277.
